Biological target: Recombinant human Cathepsin B (human) (UniProt P07858)
Experiment: cell-based or functional assay

ADC1, AF-Arg-Lys(PEG4-Mal-trastuzumab)-Phe-OH (antibody)
T 1/2 of release of AF-Arg by Cat B: < 5 min
